The record followed here is patent publication US8541670B2, “Compositions and methods for inhibiting tumor cell growth” (priority 2007, dated 2013).

Where no end group is shown, it is not given here. red fluorescent dye = not defined here

This test has as its target T1, JAK3 (Homo sapiens, UniProt P52333).
T1 construct: endogenous in cells
T1 sequence (P52333 1-1124): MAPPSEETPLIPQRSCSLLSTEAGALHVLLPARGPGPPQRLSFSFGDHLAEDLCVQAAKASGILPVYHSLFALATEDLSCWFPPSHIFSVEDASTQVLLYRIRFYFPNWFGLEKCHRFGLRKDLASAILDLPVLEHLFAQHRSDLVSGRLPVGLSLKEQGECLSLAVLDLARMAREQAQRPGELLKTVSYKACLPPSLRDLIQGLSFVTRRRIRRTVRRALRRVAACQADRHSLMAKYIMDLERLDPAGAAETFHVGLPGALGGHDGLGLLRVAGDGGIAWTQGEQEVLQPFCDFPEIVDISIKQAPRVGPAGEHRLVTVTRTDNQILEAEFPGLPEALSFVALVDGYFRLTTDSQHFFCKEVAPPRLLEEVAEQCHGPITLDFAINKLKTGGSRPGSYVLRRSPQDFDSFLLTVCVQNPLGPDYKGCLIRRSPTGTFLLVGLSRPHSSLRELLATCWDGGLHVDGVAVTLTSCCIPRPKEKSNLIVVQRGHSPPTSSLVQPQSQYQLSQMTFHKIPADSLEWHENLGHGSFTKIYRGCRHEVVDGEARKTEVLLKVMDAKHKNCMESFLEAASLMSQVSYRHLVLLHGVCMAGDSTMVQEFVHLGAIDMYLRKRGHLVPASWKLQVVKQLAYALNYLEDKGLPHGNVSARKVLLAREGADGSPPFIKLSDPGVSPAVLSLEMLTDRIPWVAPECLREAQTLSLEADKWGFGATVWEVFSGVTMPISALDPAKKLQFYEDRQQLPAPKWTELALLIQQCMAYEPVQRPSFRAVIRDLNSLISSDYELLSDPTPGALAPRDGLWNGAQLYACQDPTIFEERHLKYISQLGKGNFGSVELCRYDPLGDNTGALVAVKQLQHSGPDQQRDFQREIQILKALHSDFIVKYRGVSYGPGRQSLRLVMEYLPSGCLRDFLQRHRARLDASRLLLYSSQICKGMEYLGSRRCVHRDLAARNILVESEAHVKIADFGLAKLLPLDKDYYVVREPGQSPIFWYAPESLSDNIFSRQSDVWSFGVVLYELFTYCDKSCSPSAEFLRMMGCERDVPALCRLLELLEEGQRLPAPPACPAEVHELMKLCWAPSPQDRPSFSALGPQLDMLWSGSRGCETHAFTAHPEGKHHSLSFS
The test is described as follows: Cell-based kinase assay, phosphorylation of intracellular substrate (Tyr-1022/1023 JAK1). The procedure: As a specific substrate, the phosphorylation level of GSK-3[…] at Ser-9 was also evaluated. […] The decrease was specific to the AKT phosphorylation site on GSK-3[…] at Ser-9, since a change in the phosphorylation level of GSK-3[…] at Tyr-216 or GSK-3[…] at Tyr-279 was not observed. Moreover, the in vivo reduction of the phosphorylation of AKT substrates was more obvious at the injection site, since a significant change in the phosphorylation of AKT substrates in the frontal cortex or cerebellum between the two hemispheres was not observed. […] To test the specificity/selectivity of ZaTa as the inhibitor of AKT1 versus the other major kinases, a series of in vitro kinase assays was performed at IC50 for AKT1 and at ten times higher concentrations. […]
Phosphorylation sites for kinases analyzed herein included Ser-235/236 S6 (a substrate for p70S6K), Tyr-207 CRKL (a substrate for Abl; Zipfel, et al. (2004) supra), Ser-241 PDK1 (a substrate for PI3K), Tyr-1022/1023 JAK1 (a substrate for JAK3; Wang, et al. (2003) supra), Ser-421 Huntingtin (a substrate for SGK; Rangone, et al. (2004) supra), Tyr-783 PLC (a substrate for TrkB; Middlemas, et al. (1994) supra), and Ser-338 cRaf (a substrate for PAK3; King, et al. (1998) supra).

For the substance “labeled ZaTa: ZaTa peptide labeled with a red fluorescent dye at its N-terminus ({red fluorescent dye}-AKRVKGRTWTLCGTPEY; reading uncertain)”, the “inhibition of JAK3 in cells” value is recorded as “did not cause inhibition”.
